# Reference: the supplement of paper PMC7877785
# ± gives the uncertainty stated by the source.
# Assay: self-splicing fitness, log relative to wild type (ln ratio); higher = more splicing; Tetrahymena group I intron in knt gene, E. coli kanamycin selection, DiMSum; sequences stand for … in CUCUCU…GGAGGGAAAAGUUAUCAGGCAUGCACCUGGUAGCUAGUCUUUAAACCAAUAGAUUGCAUCGGUUUAAAAGGCAAGACCGUCAAAUUGCGGGAAAGGGGUCAACAGCCGUUCAGUACCAAGUCUCAGGGGAAACUUUGAGAUGGCCUUGCAAAGGGUAUGGUAAUAAGCUGACGGACAUGGUCCUAACCACGCAGCCAAGUCCUAAGUCAACAGAUCUUCUGUUGAUAUGGAUGCAGUUCACAGACUAAAUGUCGGUCGGGGAAGAUGUAUUCUUCUCAUAAGAUAUAGUCGGACCUCUCCUUAAUGGGAGCUAGCGGAUGAAGUGAUGCAACACUGGAGCCGCUGGGAACUAAUUUGUAUGCGAAAGUAUAUUGAUUAGUUUUGGAGUACUCGUGGUCG
# How it was run: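 DiMSum derived fitness as the error-weighted combination of fold changes across replicates, kanamycin versus no kanamycin, normalised to wild type. E. coli BL21(DE3) held the library, which randomised all eight P1ex-region intron nucleotides within the knt kanamycin-resistance gene on pET-22b(+). Six replicate transformations grew overnight at 37°C or 30°C on LB agar with or without 25 μg/mL kanamycin, also containing 100 μg/mL carbenicillin, 50 μM IPTG and 0.2% rhamnose, and pooled colonies were amplicon-sequenced on an Illumina HiSeq 2500.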
Sequence,self-splicing fitness (ln) (30 °C),self-splicing fitness (ln) (37 °C)
UACGAGCAAUAUUACGUGAU,-4.17 ± 0.21,-2.45 ± 0.2
UACGAGCAAUAUUACGUGUG,-2.43 ± 0.15,-1.82 ± 0.12
UACGAGCAAUAUUACGUUCU,-2.38 ± 0.14,-2.35 ± 0.16
UACGAGCAAUAUUACGUUGC,-3.28 ± 0.32,-2.18 ± 0.33
UACUAGCAAUAUUACGAAAG,-2.94 ± 0.11,-1.93 ± 0.13
UACUAGCAAUAUUACGAAGG,-3.46 ± 0.29,-1.04 ± 0.34
UACUAGCAAUAUUACGAAUG,-0.956 ± 0.083,0.689 ± 0.12
UACUAGCAAUAUUACGACCC,,-0.364 ± 0.39
UACUAGCAAUAUUACGACUG,-0.572 ± 0.095,0.113 ± 0.13
UACUAGCAAUAUUACGAGCG,-0.191 ± 0.088,0.655 ± 0.11
UACUAGCAAUAUUACGAGCU,-2.4 ± 0.24,
UACUAGCAAUAUUACGAUAA,-1.05 ± 0.085,-0.513 ± 0.093
UACUAGCAAUAUUACGCAAA,-2.94 ± 0.31,-0.966 ± 0.2
UACUAGCAAUAUUACGCAGC,-2.49 ± 0.39,-2.08 ± 0.39
UACUAGCAAUAUUACGCAGG,-1.77 ± 0.14,-1.49 ± 0.15
UACUAGCAAUAUUACGCAUG,-1.72 ± 0.099,-0.591 ± 0.12
UACUAGCAAUAUUACGCCCG,0.342 ± 0.24,-1.04 ± 0.2
UACUAGCAAUAUUACGCGGG,-3.19 ± 0.22,-1.75 ± 0.2
UACUAGCAAUAUUACGCUCA,-0.532 ± 0.095,0.288 ± 0.13
UACUAGCAAUAUUACGCUCG,-0.908 ± 0.13,0.0226 ± 0.15
UACUAGCAAUAUUACGGCAC,-2.77 ± 0.19,-1.73 ± 0.2
UACUAGCAAUAUUACGGCCC,-1.47 ± 0.16,-2.36 ± 0.28
UACUAGCAAUAUUACGGCUU,-1.2 ± 0.096,0.146 ± 0.12
UACUAGCAAUAUUACGGUAA,-2.33 ± 0.14,-1.01 ± 0.12
UACUAGCAAUAUUACGGUUG,-2.18 ± 0.081,-1.06 ± 0.11

Sequence,self-splicing fitness (ln) (30 °C),self-splicing fitness (ln) (37 °C)
UACUAGCAAUAUUACGUAAG,-4.32 ± 0.31,-3.07 ± 0.3
UACUAGCAAUAUUACGUACG,-2.76 ± 0.1,-1.31 ± 0.091
UACUAGCAAUAUUACGUUGA,-3.37 ± 0.17,-0.894 ± 0.12
UAGAAGCAAUAUUACGAAAG,-1.97 ± 0.21,-1.26 ± 0.18
UAGAAGCAAUAUUACGAACA,-0.322 ± 0.16,-0.859 ± 0.17
UAGAAGCAAUAUUACGACUC,-0.192 ± 0.12,-0.013 ± 0.16
UAGAAGCAAUAUUACGAGUA,-1.31 ± 0.096,-0.33 ± 0.12
UAGAAGCAAUAUUACGCUGU,-3.73 ± 0.26,-0.977 ± 0.15
UAGAAGCAAUAUUACGGAGU,-3.56 ± 0.15,-2.1 ± 0.13
UAGAAGCAAUAUUACGGAUA,-1.18 ± 0.1,-0.43 ± 0.11
UAGAAGCAAUAUUACGGCCG,0.101 ± 0.083,-0.0885 ± 0.11
UAGAAGCAAUAUUACGGGAC,-3.1 ± 0.36,-3.21 ± 0.47
UAGAAGCAAUAUUACGGUAG,-1.88 ± 0.13,-0.213 ± 0.13
UAGAAGCAAUAUUACGGUGC,,-1.46 ± 0.48
UAGAAGCAAUAUUACGUAUA,-1.58 ± 0.16,-0.471 ± 0.15
UAGAAGCAAUAUUACGUCCU,-0.903 ± 0.12,-0.0829 ± 0.17
UAGAAGCAAUAUUACGUGGU,-3.52 ± 0.2,-2.54 ± 0.18
UAGAAGCAAUAUUACGUUGA,-2.99 ± 0.23,-1.62 ± 0.18
UAGAAGCAAUAUUACGUUUG,-2.32 ± 0.1,-0.879 ± 0.12
UAGCAGCAAUAUUACGAAUA,-0.737 ± 0.1,-0.606 ± 0.11
UAGCAGCAAUAUUACGAGUC,-4.81 ± 0.34,-2.22 ± 0.22
UAGCAGCAAUAUUACGAUGC,,-1.66 ± 0.49
UAGCAGCAAUAUUACGAUGG,-1.6 ± 0.063,-0.933 ± 0.073
UAGCAGCAAUAUUACGAUGU,-3.82 ± 0.21,-2.5 ± 0.2
UAGCAGCAAUAUUACGCACA,-0.126 ± 0.072,0.0233 ± 0.11

Sequence,self-splicing fitness (ln) (30 °C),self-splicing fitness (ln) (37 °C)
UAGCAGCAAUAUUACGCAUA,-1.09 ± 0.07,-0.101 ± 0.079
UAGCAGCAAUAUUACGCGAA,-1.54 ± 0.091,-1.24 ± 0.12
UAGCAGCAAUAUUACGCGAC,-3.54 ± 0.21,-1.67 ± 0.21
UAGCAGCAAUAUUACGCGCC,-1.77 ± 0.12,-1.16 ± 0.19
UAGCAGCAAUAUUACGCUCA,-0.152 ± 0.095,0.307 ± 0.1
UAGCAGCAAUAUUACGGAAC,-4.05 ± 0.27,-3.08 ± 0.31
UAGCAGCAAUAUUACGGAAG,-3.04 ± 0.16,-1.14 ± 0.15
UAGCAGCAAUAUUACGGAGC,-2.95 ± 0.44,-1.74 ± 0.49
UAGCAGCAAUAUUACGGCAG,-0.659 ± 0.1,0.546 ± 0.13
UAGCAGCAAUAUUACGGCUU,-1.1 ± 0.11,0.255 ± 0.15
UAGCAGCAAUAUUACGGUAA,-1.32 ± 0.09,-1.13 ± 0.11
UAGCAGCAAUAUUACGGUCA,-0.671 ± 0.07,0.278 ± 0.085
UAGCAGCAAUAUUACGUAUU,-3.99 ± 0.26,-1.54 ± 0.19
UAGCAGCAAUAUUACGUCGU,-3.4 ± 0.14,-1.97 ± 0.12
UAGCAGCAAUAUUACGUUAC,,-1.36 ± 0.22
UAGCAGCAAUAUUACGUUUA,-1.26 ± 0.067,-0.291 ± 0.078
UAGCAGCAAUAUUACGUUUC,-2.78 ± 0.29,-1.85 ± 0.33
UAGGAGCAAUAUUACGAAUA,-1.13 ± 0.41,
UAGGAGCAAUAUUACGACGA,-1.21 ± 0.2,-0.888 ± 0.28
UAGGAGCAAUAUUACGAGGC,-2.87 ± 0.17,-3 ± 0.29
UAGGAGCAAUAUUACGAUUA,-0.679 ± 0.065,0.31 ± 0.094
UAGGAGCAAUAUUACGCCUA,-3.16 ± 0.34,-3.02 ± 0.35
UAGGAGCAAUAUUACGCGCA,-0.955 ± 0.1,-0.414 ± 0.12
UAGGAGCAAUAUUACGCGCC,,-1.03 ± 0.37
UAGGAGCAAUAUUACGCGGG,,-1.24 ± 0.21

Sequence,self-splicing fitness (ln) (30 °C),self-splicing fitness (ln) (37 °C)
UAGGAGCAAUAUUACGCUGG,-2.38 ± 0.43,-0.826 ± 0.28
UAGGAGCAAUAUUACGGACG,,-0.862 ± 0.38
UAGGAGCAAUAUUACGGGGG,,-2.74 ± 0.41
UAGGAGCAAUAUUACGUAAA,-2.09 ± 0.16,-1.49 ± 0.15
UAGGAGCAAUAUUACGUAGC,-3.98 ± 0.24,-2.74 ± 0.21
UAGGAGCAAUAUUACGUCCA,-1.23 ± 0.17,-0.339 ± 0.18
UAGGAGCAAUAUUACGUGCG,-2.89 ± 0.17,-0.951 ± 0.16
UAGGAGCAAUAUUACGUGUU,-2.97 ± 0.13,-2.51 ± 0.17
UAGGAGCAAUAUUACGUUAC,,-2.08 ± 0.32
UAGUAGCAAUAUUACGACAG,-2.01 ± 0.3,-1.18 ± 0.37
UAGUAGCAAUAUUACGACCU,-0.902 ± 0.11,0.242 ± 0.11
UAGUAGCAAUAUUACGCAGA,-2.43 ± 0.23,-2.99 ± 0.18
UAGUAGCAAUAUUACGCAUA,-1.58 ± 0.11,-1.69 ± 0.11
UAGUAGCAAUAUUACGCCCU,-1.34 ± 0.21,-0.583 ± 0.2
UAGUAGCAAUAUUACGGCGG,-0.668 ± 0.085,-0.639 ± 0.11
UAGUAGCAAUAUUACGGCGU,-2.15 ± 0.17,-1.2 ± 0.17
UAGUAGCAAUAUUACGGGAG,-3.69 ± 0.4,-2.3 ± 0.45
UAGUAGCAAUAUUACGGUGG,-3.44 ± 0.27,-2.09 ± 0.2
UAGUAGCAAUAUUACGUCUA,0.265 ± 0.095,0.659 ± 0.1
UAGUAGCAAUAUUACGUGCC,-2.98 ± 0.25,-2.11 ± 0.27
UAUAAGCAAUAUUACGCAAG,-1.86 ± 0.23,0.725 ± 0.17
UAUAAGCAAUAUUACGCAGU,-3.27 ± 0.2,-1.68 ± 0.15
UAUAAGCAAUAUUACGCAUG,-0.714 ± 0.12,-0.154 ± 0.13
